Experimental data as given in doi:10.1101/221747.

What was measured:
[1] = molecular target: Med15 activator-binding domain 2 (ABD2; residues 277–368) (yeast) (UniProt P19659); assay: ITC + fluorescence polarisation
[2] = molecular target: Med15 1–651 Δ239–272, Δ373–483 (KIX123) (yeast) (UniProt P19659); assay: fluorescence polarisation
[3] = molecular target: Med15 158–651 Δ239–272, Δ373–483 (ABD123) (yeast) (UniProt P19659); assay: fluorescence polarisation

“Gcn4 central activation domain (cAD; residues 101–134) (from UniProt P03069 101-134) (domain or fragment)” showed a Kd [1] of 150 µM.

“Gcn4 tandem activation domains (tAD; residues 1–134) (from UniProt P03069 1-134) (domain or fragment)” showed an increase of affinity over ABD123 [2] of 30% and a fold higher affinity than the strongest piecemeal interaction [3] of 20 fold.
